# Laboratory results taken from PMC7789814, “The influence of various regions of the FOXP2 sequence on its structure and DNA-binding function”.
# T1: FOXP1 LZ-END (UniProt Q9H334 332-677)
# T1 sequence: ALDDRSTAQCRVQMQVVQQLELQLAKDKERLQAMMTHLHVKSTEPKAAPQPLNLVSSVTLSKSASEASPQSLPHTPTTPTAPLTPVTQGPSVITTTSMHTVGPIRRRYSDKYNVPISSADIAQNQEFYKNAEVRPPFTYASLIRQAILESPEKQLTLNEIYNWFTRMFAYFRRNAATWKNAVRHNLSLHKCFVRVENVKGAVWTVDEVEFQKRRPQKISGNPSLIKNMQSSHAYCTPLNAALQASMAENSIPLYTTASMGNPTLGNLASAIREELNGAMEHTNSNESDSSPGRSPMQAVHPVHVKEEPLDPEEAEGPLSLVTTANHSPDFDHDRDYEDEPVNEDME
# T2: FOXP2 FHD (UniProt O15409 504-594)
# T2 sequence: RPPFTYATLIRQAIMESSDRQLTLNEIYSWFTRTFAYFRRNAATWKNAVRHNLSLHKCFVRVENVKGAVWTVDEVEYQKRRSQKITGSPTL
# T3: FOXP2 LZ-FHD (UniProt O15409 372-594)
# T3 sequence: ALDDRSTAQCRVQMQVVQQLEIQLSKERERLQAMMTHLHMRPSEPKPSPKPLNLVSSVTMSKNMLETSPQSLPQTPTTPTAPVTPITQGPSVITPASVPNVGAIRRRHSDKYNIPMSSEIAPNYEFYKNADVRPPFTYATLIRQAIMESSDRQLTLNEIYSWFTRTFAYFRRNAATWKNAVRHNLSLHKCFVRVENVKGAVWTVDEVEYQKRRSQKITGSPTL
# T4: FOXP1 LZ-FHD (UniProt Q9H334 332-555)
# T4 sequence: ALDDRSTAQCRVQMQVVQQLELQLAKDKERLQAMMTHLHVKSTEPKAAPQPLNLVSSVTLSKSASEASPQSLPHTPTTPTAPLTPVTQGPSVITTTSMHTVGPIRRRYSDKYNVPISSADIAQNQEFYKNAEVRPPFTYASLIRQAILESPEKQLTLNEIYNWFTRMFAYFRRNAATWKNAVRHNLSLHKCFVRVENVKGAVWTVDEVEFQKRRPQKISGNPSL
# T5: FOXP2 FHD-END (UniProt O15409 504-715)
# T5 sequence: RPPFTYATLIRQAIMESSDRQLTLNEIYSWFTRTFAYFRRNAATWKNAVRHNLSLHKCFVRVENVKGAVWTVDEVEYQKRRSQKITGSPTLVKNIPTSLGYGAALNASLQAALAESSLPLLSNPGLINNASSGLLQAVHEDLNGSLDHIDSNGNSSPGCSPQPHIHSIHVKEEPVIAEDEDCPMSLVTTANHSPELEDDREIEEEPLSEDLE
# T6: FOXP2 LZ-END (UniProt O15409 372-715)
# T6 sequence: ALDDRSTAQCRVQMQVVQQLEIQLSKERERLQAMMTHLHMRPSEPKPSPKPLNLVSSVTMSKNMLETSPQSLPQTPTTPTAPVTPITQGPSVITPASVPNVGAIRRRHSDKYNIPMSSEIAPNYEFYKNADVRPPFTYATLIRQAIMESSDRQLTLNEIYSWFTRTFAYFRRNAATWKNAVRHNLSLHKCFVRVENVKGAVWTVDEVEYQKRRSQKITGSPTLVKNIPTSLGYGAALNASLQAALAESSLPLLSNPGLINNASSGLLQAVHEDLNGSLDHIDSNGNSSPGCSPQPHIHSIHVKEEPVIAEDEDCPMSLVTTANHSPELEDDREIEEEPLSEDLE
# B1: FOXP2 cognate DNA, ROX-labelled (dsDNA)
# DNA 1: TTAGGTGTTTACTTTCATAG
# DNA 2: CTATGAAAGTAAACACCTAA
# Experiments:
# FOXP1 LZ-END [1] = assay: SEC; 20 µM protein incubated at 20°C for at least 30 min; Superdex 200 10/300 GL; running buffer 500 mM NaCl, 10 mM HEPES pH 7.5, 2 mM DTT; calibrated with 12-200 kDa markers; oligomer size predicted from the monomeric size
# FOXP2 LZ-END [2] = assay: as above
# FOXP2 FHD-END [3] = assay: SEC; 20 µM protein incubated at 20°C for at least 30 min; HiLoad 16/60 Superdex 75 prep grade; running buffer 500 mM NaCl, 10 mM HEPES pH 7.5, 2 mM DTT; calibrated with 12-200 kDa markers; oligomer size predicted from the monomeric size
# FOXP1 LZ-END [4] = biological target: T1, FOXP1 LZ-END; assay: fluorescence anisotropy; FA: 10 mM HEPES pH 7.5, 100 mM NaCl, 0.02% NaN3, 500 nM DNA, temperature not stated; EMSA: 10 mM HEPES pH 7.5, 1 mM MgCl2, 100 mM KCl, 10% glycerol, 0.1 mg/ml BSA, 500 nM DNA, on ice, gel at 4 C; conditions: protein: recombinant; (purified by nickel IMAC); chain copies: 4; blunt
# FOXP2 FHD = biological target: T2, FOXP2 FHD; assay: as above; conditions: protein: recombinant; (purified by nickel IMAC); blunt
# FOXP2 LZ-FHD = biological target: T3, FOXP2 LZ-FHD; assay: as above; conditions: protein: recombinant; (purified by nickel IMAC); chain copies: 2; blunt
# FOXP1 LZ-FHD = biological target: T4, FOXP1 LZ-FHD; assay: as above; conditions: protein: recombinant; chain copies: 2; blunt
# FOXP2 FHD-END [5] = biological target: T5, FOXP2 FHD-END; assay: as above; conditions: protein: recombinant; (purified by nickel IMAC); chain copies: 2; blunt
# FOXP2 LZ-END [6] = biological target: T6, FOXP2 LZ-END; assay: as above; conditions: protein: recombinant; (purified by nickel IMAC); chain copies: 8; blunt
molecule,measurement,setting,value
FOXP1 LZ-END (domain or fragment),percent of the species in the larger oligomer,FOXP1 LZ-END [1],60%
same,stoichiometry N,FOXP1 LZ-END [1],4
FOXP2 LZ-END (domain or fragment),percent of the species in the larger oligomer,FOXP2 LZ-END [2],70%
same,stoichiometry N,FOXP2 LZ-END [2],< 8
FOXP2 FHD-END (domain or fragment),stoichiometry N,FOXP2 FHD-END [3],2
B1,Kd,FOXP1 LZ-END [4],1280 ± 70.4 nM
same,Kd,FOXP2 FHD,1746 ± 15.9 nM
same,Kd,FOXP2 LZ-FHD,347 ± 55.4 nM
same,Kd,FOXP1 LZ-FHD,766 ± 12.1 nM
same,Kd,FOXP2 FHD-END [5],1900 ± 25.1 nM
same,Kd,FOXP2 LZ-END [6],326 ± 73.2 nM
